# Laboratory results published in the DeepSol protein solubility set.
# Assay: soluble on expression in E. coli; label from the status in PepcDB or PDB records
row,Sequence,soluble on expression in E. coli
1,MAFHMPLKELQPVDTSLPEHVVKGAVVIDKEFTIWNHRAVIPSNALHTVFITINLLEQKLTDVVKMAARSMNLSEDDSYGLMADKPKRFITDDNLNSLGSGFILTLCASPDHYVKRITEILTEGNNISQMENAVKTLDEFSLDPALIEAFYRCSSLELLFSLIRDDRVCMSSTLLSTCLRALSSMLELAVGDFTWKSVPNDVVVSMASLVTGKAKREEANTLLAALQMLEQLVIGDDTTRDWILEEVPIETLIRHVEKSDERIALCALSLMNSMIRRCPDDEKRFELIKSLEVVPFRNAVHSSLLRGGGGVRNLNAIEQLVEVQRSLISAYETSPPTDAEVQKILDIESSEDVSEEIREMWKSQIGEHRCGRLAAISMVQFAEKSPQDLRMLISENTMRIEGGKWQLIPMWMRCCDIAAELFRVIPGRDELDRLIVVLFSTETPFPAVFACIVHLFHRTWREMQAKGGEMEKVACVVLEQLRHVLKRREIQDVEELSADLETFSYRAMQEIWREEQLGKENIQLHSEAVIQLKSKLRPKMEELVRINHLNYLKLGAVFRKPQKSKSLAKLAFWHWKLDASEKMLTITGCDGENYVEGVQRDDIRQVWIKDIADVTNNDEIDRKASSSRFTSSPSTQMLRGIRVQLKTTNDMKEGEVLMALTSDETQSVIWLEGLAELIGSKAVKSETDAMVERMLKMELRVRLLNVKLTNPEEKPEIPPIPDDIKSFISKF,not soluble
2,MAFNKVKIVKGSGGWGGPLIIEPTEKKNKVVYVTGGAKPETAVKIAELTGCELIDGFSQGVKDDEIACVIINCGGTLRCGIYPQKKIPTINIMKTGKSGPLAMFIKEDIYVSGVKPTNVEQ,not soluble
3,MAGDPMAHITRFEAPWFLMISKKQYKWTVRPNAGPHSIEKSIPLAVVIRDYLKLAGTIREAKHIIFDGKVLVDGKVRKDYKYPVGLMDIVSIPSADLYFRVLPDNVRFMRFSKISADEARYKYVRIINKTTIKEGRIQLNLEDGRNILVDKETAKNFKTLMTLKIELPSQQILDSFTISERSYAIFVGGRNVGIHGIVKNINLSKFKSRKYSVITLESRDGNTYQTNIMNVMSIGREKSDLRVDLEHHHHHH,soluble
4,MAGDPMIIYRQYHHEGAPVYEIITKTFQHVSIKCDDSFSDTEIFKLLSLLQDDIDHMKVSLEHHHHHH,not soluble
5,MAGDPMQADLFDAEQTGIRTRLGEQAWVLRGFALPWLDALLPALRAVIAQAPLRHMATPGGFTMSVALTNCGALGWTTDAHGYRYRPDDPQTGLPWPPMPQAFAQLAREAAAQAGFAGFDPDACLVNRYAPGARMSLHQDKNERDFGAPIVSVSLGLPAMFLFGGARRDERPARIPLLHGDVAVWGGVDRLRYHGVMPLAEGQHPLLGRQRINFTLRRAGALEHHHHHH,not soluble
6,MAGDPMSATETITTNARVLGADPLVKDGFGEEDMLTLVLPYIKTAREGVLRLGELLETYGTYESNGIAFADTEEIWWLKTIGGHNWIARRVPDDAYVTNPNQLGIDHYEFENPDDYLASPDIRDFINKHHLDLTYSNEHFNPRYAFGSQRDKDHHYNTPRARAMLEHHHHHH,not soluble
7,MAGDPMTELEMHLLNALEQLQQDYTQRLKDWESPFTDLQHMFELTRQENGQLREQCDDLSQQVQRLAGQVDHLSRLFITNSRLEHHHHHH,not soluble
8,MAGDPMTEQDIYKLLADGERVTLECKKAQNGVPNSLWETYSAFANTNGGILLLGVYENVAEKDSLMRFTITGVEDADKIRKDLWNTINSREKVNVNLLHDEDVQTISVNGKEVIAINVPRADYNLRPVYINNNLMRGTYRRNHEGDYHCTEQMIKMMVRDAYEDGNDRMFLEYYTMDDIDIPTLEGYRVMFKTNNPEHIWNSLDHKEFLMQLGGYVVNRKDGTEGLTIAGLLMFGKGLPVRERFDYLRMDYIDKSNLIGDQRYSDRLTYDGTWENNLFNFIRMVVPRLTRDIPRPFQMDGIIRKDDTPQHKAVREAFTNMIIHADLMLNGLLRVEKYDDRFVLSNPGLLKLPVEQIYAGGESKARNQRMQHMLRMIGYGENLGSGFPLILSAWNEKHWLKPELVEQPELMQVKLILHIENRVYVTKDVTKDVTKELTERQQIILEFMQADGTITISEMSQKTNVTERTIKRDIESLTEKGILSREGGRKEGRWVIRKILEHHHHHH,soluble
9,MAGDPMTKQEKIQKTITFVKHILEKDASGHDWYHIERVHKMAISLSEQEGGNRFIIEMAALLHDVADEKLNESEEAGMKKVSDWLEELRVEEEESKHILHIIANMSYKGGHGGTVESLEGKIVQDADRLDALGAIGIARTFAYGGAKGRLMYDPTIPPREEMTKEEYRKNNDPSLNHFYEKLLKLKDLMNTNAAKQEAEIRHLYMEQFIEQFMKEWNAQILEHHHHHH,soluble
10,MAGDPMYRVGIDVGGTNTDAVVLQDKTVLAGVKASTTEDVTSGVIEALEKVIDASGIDRARIGAVMIGTTHFTNAVIERRHMDEVAAIRIGLPSGAGLPPMVDWPDDLKEIVGNHGYQVRGGYEFDGREISPLDEDEIVRIAADIRAKALKAAAVTCVFSGINDAMEVRAKEILQDRCPGLPVVMSKDIGRHGLLARESAAIMNASLLSLADRTVAAFGEALKAAGITCPFYITQNDGTLMAADVVRGFPVLTFASGPTNSMRGAAFLTGLKDAVVVDVGGTTSDVGSLSHGFPRQASTTVDIGGVRTNFRMPDVFSIGLGGGSMVVNGDHGLTVGPKSVGYRVRRDALCFGGSTLTATDIAVASGKADVGEKALVSSLDKRLVDAAVNKINDMLEACVERSRISSSPVPVIAVGGGSILMPDRIGNLDVIRPENFAVANAVGAAIAQISGETDRVFSLIDGRTRESALAEAEAEAREKAIAAGAIAETLEVIEREDMPLAYLPGNATRIHVKVVGEMGANHGAAALEHHHHHH,not soluble
11,MAGDPNSMKFMSGKFCVLCGKQNVDLIDSLCVDCYVKSKKLIETPKRVTGKYCKICGAQWIRGKWIRTSATSLASVVEDIIARELGSKMRIDKNVDEFAFDIKSIWKDPSGNSFATIEFRGKVRGKSFSQEAVISLEMERELCDSCFRKKTRYYEAIVQLRSKGKIGVDDKKRAFFESFFSTSIVDNISDVIEGREGVDYYFMSKSVARKLVSMISSIVDVEVNESYQNEKMKNGKREAKLVISLRILEHHHHHH,not soluble
12,MAGDPNSMPVLSIIACGMLEDELVHVLIRDCEIRQLIVVENNNISGFLRKLRSGGLVPRVISLDRVPMLLETGFSPGFKKISKMLMHFHFFRKMNEKIESGAGIKIDVVINLLRLGLHVDLELLKSEVYKNVREMAKFSDGILIFYGTCGHVLGGLERDFADLECPLFFLKDSSGEIVEDCISAALGGNDAYAGAMLECRGKGTIYLTPMWASSWKMLEKESGNRDLNNRYLKNSRYCLAAKIDSGLLYDPYFDRNVEDFALTFGMKIINMSGSSEVAEKSYLAARKAVLRKTAAALEHHHHHH,not soluble
13,MAGEHIKVIYFDGRGRAESIRMTLVAAGVDYEDERISFQDWPKIKPTIPGGRLPAVKVTDDHGHVKWMLESLAIARYMAKKHHMMGETDEEYYSVEKLIGQAEDVEHEYHKTLMKPQEEKEKITKEILNGKVPVLFNMICESLKGSTGKLAVGDKVTLADLVLIAVIDHVTDLDKGFLTGKYPEIHKHRENLLASSPRLAKYLSNRPATPF,soluble
14,MAGHSHWAQIKHKKAKVDAQRGKLFSKLIREIIVATRLGGPNPEFNPRLRTAIEQAKKANMPWENIERAIKKGAGELEGEQFEEVIYEGYAPGGVAVMVLATTDNRNRTTSEVRHVFTKHGGNLGASGCVSYLFERKGYIEVPAKEVSEEELLEKAIEVGAEDVQPGEEVHIIYTVPEELYEVKENLEKLGVPIEKAQITWKPISTVQINDEETAQKVIKLLNALEELDDVQQVIANFEIPEEILQKVGLEHHHHHH,not soluble
15,MAGHVNGTCAPVIPKVGDEEDGVGQLVANLKEKGTNFVLLKKTPQILELQTILKDRFCGKINDFRYFCRKNLLILNKLLFCLKKRFSWNLDFKNPLIHKFSGQKRHFKRFCQIFSDFESKFRYFHKFPGPKRSTNHSDFVFNADRLMRLVIEECLNHLPFTEHTVTTPTGFKYEGIQFNRGNCGVSLCRSGEAMEVSLRQCCRCIRIGKILIGDEQKVLYARLLPDITSRRVLLLYPTIGSGTTVCKAIEVLKEARVPDENIYLVSLFISPTGLKNITRKYPYITVVASDITSLYPNHFSTSYFGAV,not soluble
